The text below walks through data of PMC3656785.

The target in experiment [1] is VipB on the GAL4 DNA-binding domain (pGBKT7) (V. cholerae). Briefly: two-hybrid.
The target in experiment [2] is VipB fused to the zinc finger DNA-binding domain of murine Zif268. The settings on record: parent: est. 680; read off a plot.

“VipA D104A fused to the GAL4 activation domain (pGADT7) (natural protein)” yielded a relative β-gal activity in experiment [1] of 92.7%.

Turning to “VipA D104A/V106A fused to the GAL4 activation domain (pGADT7) (natural protein)”, the relative β-gal activity in experiment [1] was determined as 64.1%.

“VipA D104A/V106A/V110A fused to the GAL4 activation domain (pGADT7) (natural protein)”: in experiment [1], the relative β-gal activity turned out to be 48.8%.

Substance “VipA V106A fused to the GAL4 activation domain (pGADT7) (natural protein)” displayed a relative β-gal activity in experiment [1] of 92.4%.

Regarding “VipA V110A fused to the GAL4 activation domain (pGADT7) (natural protein)”, the relative β-gal activity in experiment [1] came out at 74.6%.

For the substance “VipA fused to the GAL4 activation domain (pGADT7) (natural protein)”, the relative β-gal activity in experiment [1] turned out to be 100%.

With “VipA fused to the ω subunit of E. coli RNAP D104A”, the response in experiment [2] worked out at 460 Miller units.

“VipA fused to the ω subunit of E. coli RNAP D104A; V106A”: the response in experiment [2] is 230 Miller units.

As for “VipA fused to the ω subunit of E. coli RNAP D104A; V106A; V110A”, the response in experiment [2] amounted to 120 Miller units.

Consider “VipA fused to the ω subunit of E. coli RNAP D104A; V106A; V110A; L113A”, for which, in experiment [2], the response was found to be 90 Miller units.

Take “VipA fused to the ω subunit of E. coli RNAP E112A”: the response in experiment [2] came out at 720 Miller units.

In the case of “VipA fused to the ω subunit of E. coli RNAP L113A”, in experiment [2], the response was determined as 490 Miller units.

For the substance “VipA fused to the ω subunit of E. coli RNAP P111A”, the response in experiment [2] came out at 590 Miller units.

As to “VipA fused to the ω subunit of E. coli RNAP Q109A”, the response in experiment [2] is 630 Miller units.

As to “VipA fused to the ω subunit of E. coli RNAP Q109A; V110I”, in experiment [2], the response was found to be 710 Miller units.

As to “VipA fused to the ω subunit of E. coli RNAP S108A”, the response in experiment [2] was 720 Miller units.

Turning to “VipA fused to the ω subunit of E. coli RNAP V106A”, the response in experiment [2] came out at 460 Miller units.

For “VipA fused to the ω subunit of E. coli RNAP V110A”, the response in experiment [2] is 430 Miller units.

Consider “VipA fused to the ω subunit of E. coli RNAP V110A; L113A”, for which, in experiment [2], the response was 120 Miller units.
